In one experiment the test system is breast cancer tissues. Description: IHC in a breast cancer cohort (primary tumors, metastases, NAT). The arrangement: species or system human. From the text: FIG. 13. The HCMV US28 expression was studied by immunohistochemistry (IHC) and in situ hybridisation (ISH) in a breast cancer cohort. […] Most tumor cells in this sample stained positively for the US28-13-5G6-1D3 rAb (brown colour). […] C. […] The arrows point out some positive HCMV DNA signals in the figure. […] A colour version of FIG. 13 is provided on the page after the non-colour version.
FIG. 14. […] B. Most cancer cells in the same sample were negative for the MAB810R staining. C. […] The arrows point out such positive HCMV DNA signals. The HCMV DNA was not seen in the cytoplasm of the tumor cells. D. The negative control anti-IgG Ab staining for the same sample was negative. A colour version of FIG. 14 is also provided.
FIG. 15. The US28 staining and HCMV ISH were negative in many normal adjacent tumor (NAT) breast tissues as exemplified in the figure with the sample BR1008b_J6. […] C. […] D. The IgG staining was also negative. […] Thus, the samples are exposed to exactly the same staining conditions and antibody/DNA probe concentrations. […] A colour version of FIG. 15 is also provided.
FIG. 16. A. The IHC staining of the primary breast cancer samples with US28-13-5G6-1D3 rAb were specific and positive in ˜73% of the 41 studied primary breast tumor samples. […]

For experiment [1], the system named is HCMV infected lung tissue. Description: Immunohistochemistry (IHC) on human lung tissue. Conditions: normal lung tissue with HCMV DNA positive macrophages. From the text: FIG. 12. […] binding in 1:400 dilution (w/v) to HCMV-infected human tissues were studied by using immunohistochemistry analysis (IHC). […] The arrows (in the non-colour version of this figure) mark the US28-13-5G6-1D3 rAb cytoplasmic staining on typical HCMV infected alveolar cells with the characteristic cytomegalo effect in the HCMV positive control slide. […] C. The same macrophages show positive HCMV DNA in the same lung biopsy, whereas there are no HCMV DNA signals in normal alveolar cells, which is coherent with the US28 staining in the same sample. […] E. The IE staining is negative for the alveolar HCMV positive macrophages in normal lung tissue. […] Colour versions of FIG. 12 are also provided alongside the non-colour versions.
FIG. 25. The binding of the N-terminal antibodies to HCMV infected lung tissue and HCMV negative myometrium were studied by IHC. […] C. […] E. Mouse lung tissue with staining IgG was used as negative control antibody. […] As with the US28-13-5G6-1D3 rAb, the ECD1-binding molecules stained typical HCMV infected cells with the characteristic cytomegalo effect, showing strong cytoplasmic or membranous staining in these cells, as the US28 protein is known to be located in cytoplasm and cell membrane, and stained positively for some tissue macrophages, which are known to be carriers of latent or reactivated HCMV.

Experiment [2] concerns the target T1, US28 of HCMV strain TB40/E on CHO cells (Human cytomegalovirus, UniProt P69332, A8T/D15E/E18L/V24T).
T1 construct: expressed in transfected cells; host or cells: CHO cells
Nature of the experiment: FACS binding to CHO cells expressing TB40/E form of US28. Conditions: FIG. 21C. From the text: The plasmids carrying the DNA for the TB40/E, VHL/E, and Merlin constructs and mutated US28 strain (SEQ ID Nos: 254, 272, 273 and 255, respectively) were also manufactured in the similar manner.
Flowcytometry was used to analyze cell surface binding by the US28 antibodies. Upon cell harvest, adherent non-infected and US28 overexpressing or HCMV infected cells were washed three times with cell staining buffer (phosphate-buffered saline (PBS (Amresco, Cleveland, 44139, USA) added 0.5% BSA and 0.05% Sodium Azide (NaN3)). The cells were trypisinized and then resuspended in DMEM with 10% FBS to inhibit the action of trypsin. The cells were then pelleted at 400×g for 10 minutes and washed three times in cell staining buffer. Cell viability and cell concentration were measured by tryphan blue viability assay and a cell counter (Countess, Invitrogen, Carlsbad, CA 92008, USA). The cell suspension was adjusted to 1×10^6 cells/mL with ice-cold cell staining buffer. The cells were blocked in 1 ml 10% FBS or 1% BSA in PBS per 1×10^6 cells, vortexed briefly, and incubated for 10-30 minutes to eliminate non-specific staining. The cells were then stained with the respective antibodies and appropriate negative controls. […]
Background: In flow cytometry, cells or beads pass a laser one at a time.

B1: US28-13-5G6-1D3: monoclonal antibody against ECD3 of HCMV US28; VH SEQ ID NO: 12, VL SEQ ID NO: 18; rAb is the recombinant product (antibody, V domains shown)
VH: EVKLVESGGGLVQPGGSLRLACATSGFTFTDYYMSWVRQPPGKALEWLGFIRSKANGYTTEYSASVKGRFTISRDNSQSILYLQMNTLRSEDSATYYCARDERRTAWLAYWGQGTLVTVSA
VL: DVLMTQTPLSLPVSLGDQASISCRSSQSIVHSNGNTYLDWYLQKPGQSPKLLIYKVSNRFSGVPDRFSGSGSGTDFTLKISRVEAEDLGVYYCFQGSHVPTWTFGGGTKLEIK
modifications: Mature form of VH sequence of 1D3, without the leader sequence; Mature form of VL sequence of 1D3, without the leader sequence
notes: monoclonal antibody against ECD3 of HCMV US28; rAb is the recombinant product
Regarding B1, the “staining of TNBC (n=7) and HER2 positive (n=11) metastases” value in the experiment on breast cancer tissues (all samples) is recorded as “positive”. The “number of negative metastasis samples” value with breast cancer tissues (hormone receptor positive cancers, of 30 metastases) turned out to be 2.

B2: 13-5G6-1D3: mouse monoclonal IgG1 kappa antibody against US28 ECD3; VH SEQ ID NO: 12, VL SEQ ID NO: 18 (antibody, V domains shown)
VH: B1 VH
VL: B1 VL
modifications: Mature form of VH sequence of 1D3, without the leader sequence; Mature form of VL sequence of 1D3, without the leader sequence
B2: in experiment [1], the “IHC staining of normal lung tissue” value is reported as “positive US28 staining for macrophages, but negative staining for alveolar cells”. For the same molecule, the “% change in absolute levels of binding between DB and TB40/E forms of US28” value in experiment [2] is “less than 10%”.
